Patent publication US20110275569A1, “PROTEASES TARGETING AGENTS” (CONSIGLIO NAZIONALE DELLE RICERCHE, priority 2008, published 2011)

T1: carboxypeptidase Y (Saccharomyces cerevisiae, UniProt P00729)
T1 sequence (P00729 112-532): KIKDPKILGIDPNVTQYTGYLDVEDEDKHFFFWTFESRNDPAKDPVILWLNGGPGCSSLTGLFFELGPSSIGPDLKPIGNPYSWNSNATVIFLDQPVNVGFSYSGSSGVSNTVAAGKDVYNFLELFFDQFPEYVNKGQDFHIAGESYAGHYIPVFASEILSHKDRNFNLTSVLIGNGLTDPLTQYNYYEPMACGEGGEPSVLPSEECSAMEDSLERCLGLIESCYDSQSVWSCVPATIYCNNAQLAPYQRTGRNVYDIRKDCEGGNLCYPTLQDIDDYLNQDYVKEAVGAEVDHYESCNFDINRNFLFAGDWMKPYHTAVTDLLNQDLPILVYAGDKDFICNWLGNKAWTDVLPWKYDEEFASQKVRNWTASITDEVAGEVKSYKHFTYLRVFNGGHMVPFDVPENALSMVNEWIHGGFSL

B1: TFS1: protein of the yeast, founder of the family I51, able to inhibit the carboxypeptidase Y (protein, UniProt P14306 1-219, looked up)
Carboxypeptidase Y inhibitor: MNQAIDFAQASIDSYKKHGILEDVIHDTSFQPSGILAVEYSSSAPVAMGNTLPTEKARSKPQFQFTFNKQMQKSVPQANAYVPQDDDLFTLVMTDPDAPSKTDHKWSEFCHLVECDLKLLNEATHETSGATEFFASEFNTKGSNTLIEYMGPAPPKGSGPHRYVFLLYKQPKGVDSSKFSKIKDRPNWGYGTPATGVGKWAKENNLQLVASNFFYAETK
B2: Sso0767: recombinant protease inhibitor protein from Sulfolobus solfataricus, PEBP family I51, monomer of 19.0 kDa, 157 amino acids (protein, listed as Sulfolobus solfataricus)
chain: MNSESIYSMRVVSSAFKNEDFIPIKYTCDGQDLSPELEWDLVTNAKSYAIIVEDPDAPGGTFIHWVIYNITTNRLPEGVPRLYKSQYGVQGVNDFGNIGYNGPCPPKTHPPHRYYFYVYAIDTILLEIKNINADKLKSLMEGHGIERGFVMGKYKRK

Key:
carboxypeptidase Y [1] = target: T1, carboxypeptidase Y; details: read-out: inhibition constant, carboxypeptidase Y; cited from earlier work
subtilisin = assay: Protease specificity panel: subtilisin; format: biochemical
Procedure: (§1) To identify the biological function of the purified inhibitor Sso0767 (SsCEI), the ability to inhibit a number of proteases was tested. The set of the proteases examined includes: the alpha-chymotrypsin, trypsin, elastase, carboxypeptidase Y, subtilisin, thrombin and two thermophilic proteases, the kumamolisin-ac and pernisine. […] The specific interaction between the inhibitor and the target proteases was also examined by incubating Sso1273 in a reaction mixture containing all the proteases investigated. In these conditions, the catalytic performance of the inhibitor was identical to that observed by assaying each protease alone.

trypsin = assay: Protease specificity panel: trypsin; format: biochemical
Procedure: as §1

bovine α-chymotrypsin = bovine α-chymotrypsin (Bos taurus, UniProt P00766); assay: Inhibition of bovine alpha-chymotrypsin by the S. solfataricus inhibitor; format: biochemical
Procedure: as §1
The inhibition of Sso1273 (SsCEI) versus α-chymotrypsin followed a hyperbolic pattern with increasing concentrations of the inhibitor and the IC50 value (50% inhibitory concentration) was 0.10 μM (Table II).
The reciprocals of the rate of the substrate hydrolysis for each inhibitor concentration were plotted against the reciprocals of the substrate concentrations. Ki was determined from the formula as per the competitive type of inhibition.
(§2) In Table II are reported Ki and IC50 values that are the average of 3-5 separate determinations.

[2] = Stability of the purified inhibitor (heat, denaturants, digestive proteases); format: physicochemical
porcine elastase = porcine elastase (Sus scrofa, UniProt P00772); assay: Inhibition of porcine elastase by the S. solfataricus inhibitor; format: biochemical
porcine elastase, sequence (P00772 27-266): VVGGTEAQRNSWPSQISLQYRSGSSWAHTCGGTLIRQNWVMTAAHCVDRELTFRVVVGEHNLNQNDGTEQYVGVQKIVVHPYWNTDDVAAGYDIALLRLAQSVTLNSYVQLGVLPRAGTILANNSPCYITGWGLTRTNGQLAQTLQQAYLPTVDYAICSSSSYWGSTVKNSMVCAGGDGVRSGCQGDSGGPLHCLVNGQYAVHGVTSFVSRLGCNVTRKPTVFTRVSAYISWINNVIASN
Procedure: as §1, §2

thrombin = assay: Protease specificity panel: thrombin; format: biochemical
Procedure: as §1

carboxypeptidase Y [3] = target: T1, carboxypeptidase Y; assay: Protease specificity panel: carboxypeptidase Y; format: biochemical
Procedure: as §1

Row | Molecule | Ki (carboxypeptidase Y [1]) [nM] | effect on subtilisin (subtilisin) | effect on trypsin (trypsin) | inhibition activity toward α-chymotrypsin (in words) (bovine α-chymotrypsin) | type of inhibition of α-chymotrypsin (bovine α-chymotrypsin; Lineweaver-Burk reciprocal plot) | resistance to common protein denaturants [2] | thermostability: inhibitory activity after incubation ([2]; 4 days at 90° C.) | resistance to digestive proteases ([2]; several digestive proteases) | inhibition activity versus elastase (in words) (porcine elastase) | effect on thrombin (thrombin) | effect on carboxypeptidase Y (carboxypeptidase Y [3])
1 | B1 | 1.8 | – | – | – | – | – | – | – | – | – | –
2 | B2 | – | not affected | not affected | best target protease among those tested | competitive inhibitor | high resistance | no reduction in inhibitory activity | resistant | clear activity | not affected | not affected
